Source: paper PMC10397247

Key:
Experiment in all cases: two-hybrid library CCNG1;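 further: natural log of median RNA to DNA barcode read ratio; higher means stronger binding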
4H2696-bA = molecular target: T1, 4H2696-bA
T1 chain: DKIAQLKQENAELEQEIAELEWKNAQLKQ

4H2883-bA = molecular target: T2, 4H2883-bA
T2 chain: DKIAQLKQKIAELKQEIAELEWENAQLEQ

4H2937-bA = molecular target: T3, 4H2937-bA
T3 chain: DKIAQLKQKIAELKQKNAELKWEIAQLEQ

4H2944-bA = molecular target: T4, 4H2944-bA
T4 chain: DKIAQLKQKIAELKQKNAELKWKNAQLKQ

4H342-bA = molecular target: T5, 4H342-bA
T5 chain: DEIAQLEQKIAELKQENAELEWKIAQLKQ

4H48-bA = molecular target: T6, 4H48-bA
T6 chain: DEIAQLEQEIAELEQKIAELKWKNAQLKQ

4H491-bA = molecular target: T7, 4H491-bA
T7 chain: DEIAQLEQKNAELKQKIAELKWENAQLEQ

4H182-bN = molecular target: T8, 4H182-bN
T8 chain: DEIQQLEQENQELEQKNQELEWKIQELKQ

4H2134-bN = molecular target: T9, 4H2134-bN
T9 chain: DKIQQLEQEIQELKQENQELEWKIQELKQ

4H2143-bN = molecular target: T10, 4H2143-bN
T10 chain: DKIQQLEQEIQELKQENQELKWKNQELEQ

4H2223-bN = molecular target: T11, 4H2223-bN
T11 chain: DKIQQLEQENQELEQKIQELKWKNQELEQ

4H2438-bN = molecular target: T12, 4H2438-bN
T12 chain: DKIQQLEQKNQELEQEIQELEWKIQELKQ

4H2473-bN = molecular target: T13, 4H2473-bN
T13 chain: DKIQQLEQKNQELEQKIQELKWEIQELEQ

4H2503-bN = molecular target: T14, 4H2503-bN
T14 chain: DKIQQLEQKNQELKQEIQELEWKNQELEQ

4H2588-bN = molecular target: T15, 4H2588-bN
T15 chain: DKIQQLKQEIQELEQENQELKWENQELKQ

4H2692-bN = molecular target: T16, 4H2692-bN
T16 chain: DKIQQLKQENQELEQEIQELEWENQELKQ

4H2717-bN = molecular target: T17, 4H2717-bN
T17 chain: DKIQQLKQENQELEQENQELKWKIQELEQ

4H2839-bN = molecular target: T18, 4H2839-bN
T18 chain: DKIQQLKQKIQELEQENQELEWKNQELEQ

4H2915-bN = molecular target: T19, 4H2915-bN
T19 chain: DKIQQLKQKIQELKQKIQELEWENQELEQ

4H3057-bN = molecular target: T20, 4H3057-bN
T20 chain: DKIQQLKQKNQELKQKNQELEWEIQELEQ

4H319-bN = molecular target: T21, 4H319-bN
T21 chain: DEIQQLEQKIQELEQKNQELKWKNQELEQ

4H3277-bN = molecular target: T22, 4H3277-bN
T22 chain: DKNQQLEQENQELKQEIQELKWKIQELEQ

4H348-bN = molecular target: T23, 4H348-bN
T23 chain: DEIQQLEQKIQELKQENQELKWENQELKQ

4H40-bN = molecular target: T24, 4H40-bN
T24 chain: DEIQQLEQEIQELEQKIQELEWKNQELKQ

4H462-bN = molecular target: T25, 4H462-bN
T25 chain: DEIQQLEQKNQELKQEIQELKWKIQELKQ

4H477-bN = molecular target: T26, 4H477-bN
T26 chain: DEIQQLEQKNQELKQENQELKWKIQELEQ

4H492-bN = molecular target: T27, 4H492-bN
T27 chain: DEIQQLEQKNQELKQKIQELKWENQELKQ

4H575-bA = molecular target: T28, 4H575-bA
T28 chain: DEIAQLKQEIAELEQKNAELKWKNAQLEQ

4H741-bN = molecular target: T29, 4H741-bN
T29 chain: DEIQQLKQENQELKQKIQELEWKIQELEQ

4H908-bN = molecular target: T30, 4H908-bN
T30 chain: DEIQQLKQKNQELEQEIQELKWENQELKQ

**Q.** DKIAQLKQENAELEQEIAELEWKNAQLKQ [4H2696-bA] was tested. Which interaction score (4H2696-bA) did it give?
**A.** The interaction score was -0.668.

**Q.** What about the interaction score (4H2883-bA) of the same binder?
**A.** The interaction score was 0.674.

**Q.** And the interaction score (4H2937-bA)?
**A.** Its interaction score is 0.659.

**Q.** What about the interaction score (4H2944-bA) of the same binder?
**A.** The interaction score was 0.173.

**Q.** And the interaction score (4H342-bA)?
**A.** Its interaction score is -0.319.

**Q.** And the interaction score (4H48-bA)?
**A.** Its interaction score is -0.267.

**Q.** And the interaction score (4H491-bA)?
**A.** Its interaction score is 1.93.

**Q.** DEIQQLEQENQELEQKNQELEWKIQELKQ [4H182-bN] was tested. Which interaction score (4H182-bN) did it give?
**A.** Its interaction score is -0.13.

**Q.** What about the interaction score (4H2134-bN) of the same binder?
**A.** Its interaction score is -0.568.

**Q.** And the interaction score (4H2143-bN)?
**A.** Its interaction score is -0.437.

**Q.** And the interaction score (4H2223-bN)?
**A.** The interaction score was -0.0217.

**Q.** What about the interaction score (4H2438-bN) of the same binder?
**A.** The interaction score was -0.143.

**Q.** What about the interaction score (4H2473-bN) of the same binder?
**A.** Its interaction score is -0.481.

**Q.** And the interaction score (4H2503-bN)?
**A.** The interaction score was -0.284.

**Q.** What about the interaction score (4H2588-bN) of the same binder?
**A.** Its interaction score is -0.916.

**Q.** What about the interaction score (4H2692-bN) of the same binder?
**A.** Its interaction score is 0.536.

**Q.** And the interaction score (4H2717-bN)?
**A.** Its interaction score is 0.137.

**Q.** And the interaction score (4H2839-bN)?
**A.** The interaction score was 0.367.

**Q.** And the interaction score (4H2915-bN)?
**A.** The interaction score was 0.186.

**Q.** And the interaction score (4H3057-bN)?
**A.** The interaction score was 2.24.

**Q.** And the interaction score (4H319-bN)?
**A.** Its interaction score is -0.552.

**Q.** What about the interaction score (4H3277-bN) of the same binder?
**A.** Its interaction score is -0.0991.

**Q.** And the interaction score (4H348-bN)?
**A.** Its interaction score is -0.689.

**Q.** What about the interaction score (4H40-bN) of the same binder?
**A.** Its interaction score is 0.0984.

**Q.** What about the interaction score (4H462-bN) of the same binder?
**A.** The interaction score was -0.134.

**Q.** What about the interaction score (4H477-bN) of the same binder?
**A.** Its interaction score is -1.61.

**Q.** And the interaction score (4H492-bN)?
**A.** The interaction score was 0.471.

**Q.** What about the interaction score (4H575-bA) of the same binder?
**A.** The interaction score was -2.96.

**Q.** What about the interaction score (4H741-bN) of the same binder?
**A.** The interaction score was -0.228.

**Q.** What about the interaction score (4H908-bN) of the same binder?
**A.** Its interaction score is -2.24.
